# Article PMC4579573, “Higher -Order Assembly of BRCC36–KIAA0157 Is Required for DUB Activity and Biological Function” (Molecular cell, 2015)
# B1: zebrafish BRISC complex (complex)
# chain 1: MAVNAVHLESDAFLVCMNHALSTEKEEVMGLCIGEVDTNRIVHIHSVIILRRSDKRKDRVEISPEQLSAASTEAERLAEMTGRPMRVVGWYHSHPHITVWPSHVDVRTQAMYQMMDQGFVGLIFSCFIEDKNTKTGRVLYTCFQSVQAQKGSEYERIEIPIHVVPHEAIGKVCLESAVELPRILCQEEQDTYRRIHSLTHLDPITKIHNGSVFTKNLCSQMSAISGPLLQWLEDRLEQNKQSIITLQKEKELLTQELAAL
# chain 2: not shown
# chain 3: MNSLSPELALSRISPELRPLLCSIVRNGRVGLDSSSCLRITDLKSGCTSLMPGPCCDRFKLHIPYAGETLKWDIIFNARDPELPPDFIFGEDADFLPEPSELPNLVSWDSGKPECLLLLVKEMLQQYHQYQCQRLRDSSRLLFEYDSLLEDPNYGRNMEIYAGRKNSWTGEFSARFLLKLPVDFSNIPIYLLKDTALDPGEDVALLSVSFEDAEATQVFPKLYLSPSIEHALGGSSALHIPAFPSGGCLIDYVPQVCQLLTNKVQYVIQGYHKRREYIAAFLSHFGMGVVEYDAVGFTKLTLLLMWKDFCFLVHVDLPLYFPRDQPTLTFQSIYHFTSSGQLYSQVQKSYPYSPRWDGNEMAKRAKAYFKSFIPQFQEGAFANGKL
# chain 4: METTEPGQADGEERMMDLRPRTRSNPEGAEDRRSSTGSLNSSLPSAPQPAVGSRVEGEGEAASSDSPPVSATAIAATASVPVAAVGNTTTTNTASLPAMSPAVKERPKPSQPTMPTQIPPSAELHLRAPRVNCPEKVIICLDLSEEMSLQKLESINGSKTNALNISQKMIEMFVRTKHKIDKRHEFALVVVNDDAMWLSGFTSDPRELCSCLYDLETNVCESFNLEDLFNVILQKIELPQMENIQTIPPPFVVRTLLVFSRHAGMLQFNPSDAVKKMLQSPYFFFDVVFLHNGTEEQTEDTSWKDVYASFCELDTKGMCYRFEVSLCGPAIELHNCMAKLLCHPLQRPFQSHASYSLLEDEDTLENEATV
# B2: Dr BRCC36–KIAA0157 binary complex (complex)
# chain 1: B1 chain 1
# chain 2: not shown
# B3: C. floridanus BRISC complex (complex)
# chain 1: MDDSSLQKVELQTDVYMVCLQHALSTENFEVMGLLIGNFACGIAKISAVIILRRLDKKKDRVEISSEQLLKAAAEAERLTVELNRPMRVLGWYHSHPHITVCPSHVDVRTQATYQTMDHSFVGLIFSVFSEGKESKEHEIFLNCFQSDNGEATEIPLEIVHTPDISDRCLRTMTDLSKILVQEEEDMAEACKDHPDVLASIHNNAVRTRALIHITDIITKPLVQTFEKRIALNKLRATHLQRQLQELQKMCNG
# chain 2: MADSDLLVTISGAALSLLFFENVRSVGNQMGFLLGEALEFIVKTYTDSDNQVETVKIHINVEAIVTCPLADLLHDSTNHINKEKLKDFVRDKSKQVIGWFCFRRNTTNLTLTLKDKLLHKQFASHFSGVNGCKEDFFLTCLLNASTSETSGTHKFRHVFLRHNKRGMFEPISLKINNLGDDASRHDGSDYKPTPVRKSTRTPDSFTKLIESLNLDVARIDGLDSAMLIQKAAEHHLMSLIPKVCESDLEVAELEKQVHELKIKIATQQLAKRLKINGENCDRISKASKDNCFSEKIDSSKKNEVRIGDDACLQREHIPSCTQSVGPNNRTVCRNTAACIAKSAEKSRRAGRSNLQESGNQQQETQNFFTNSRRSIPEIATESICQEGSEISMGRGRGSGRGSHEFTPGMKKIRRTPGTSHMHSSRERSTTPPEQDFSDAECPISSPVLRSYSQVTKKTNLDKCNSMAPLDI
# chain 3: MLNQQHPLLSTIDSYIEPLLKRVLQTKRLGVCCGLIKLDSVSSSCNKSKNDCFKLSIPYAGEHLVWSVLFDSQYPEMGPDFIFNDQSFLADPDINTLSTWIPSLTKWNPNDIDALLNVLSELLLYYKEHQLHLLGKQGDRLQFEYSTLVGETEISREDIEVIMLPLGTKPTEARFLIRIVMDYSRLPPRINKSQNDEAMLIIMFYGPDWNRIIPQLYLSKTLEDIFGGPESLHIPPFPSSKYLMDYVPEVKKFIDEKIHNVVQSFESRKSFITVLIVSQRGSILEYDAIEFNWISMLLEHRDFHFLIHFHLPSTFPKEKPQITLQSVYHMTSQGTLYKEVLDDTPYSPRWQIILMVDKLLTYIMENAVQKFQANSMKNRF
# B4: CfBRCC36 (enzyme, C. floridanus, UniProt E2AXC7 1-253, looked up)
# chain: B3 chain 1
# notes: BRCC36 of Camponotus floridanus, residues 1-253; The crystal of PDB 5CW4 held seleno-methionine protein; also called C. floridanus BRCC36; B36; source: insect cells (MultiBac expression system), co-expressed with its partners, purified
# Key:
# [1] = target: the molecule itself; assay: SEC-MALS; complexes and subcomplexes purified from insect cells; size exclusion chromatography coupled to multi-angle light scattering (Figures S1B-E and S8E-G)
# [2] = target: the molecule itself; assay: crystal structure; CfBRCC36–KIAA0157ΔC, seleno-methionine-SAD, two heterodimers in the asymmetric unit, 2.55 Å
Protein,stoichiometry N [1],binding result [2]
B1,2,
B2,2,
B3,2,
B4,,binds
